Numbering of substitutions follows the chain as printed. In names and notes the source's numbering stands. Each block holds one binder with its values, some of them ahead of it.
What was measured:
[1] = target: T1, human PD-1-His (human, UniProt Q15116 25-170); assay: ELISA, coated human PD-1-his
T1 construct: extracellular domain; not shown: His tag
Description: (§1) To verify the affinity of the humanized PD-1 antibody to PD-1-His antigen, ELISA was employed. The specific experimental steps were as follows: human PD-1-his was diluted to 1 μg/mL with CBS solution, then coated on a 96-well ELISA plate (purchased from Guangzhou Jiete Bio) at 4° C. overnight. […] After washing, a goat anti-mouse secondary antibody (FC) labeled with horseradish peroxidase diluted in phosphate buffer (PBS) containing 2% BSA in a ratio of 1:15000 was added, followed by incubating at 37° C. for 1 hour. After washing, the TMB chromogen solution was used for developing, and the absorbance value was read using a microplate reader at 450 nm. The data were imported into Graphprism to calculate EC₅₀ values.

[2] = target: T2, human PD-1-hFc (human, UniProt Q15116 25-170); assay: competitive ELISA, coated PD-1-hFc, competitor PDL2-mFc
T2 construct: extracellular domain; Extracellular domain of human PD-1 fused to an hFc tag, made in house; not shown: hFc tag
Description: (§2) The specific experimental steps were as follows: human PD-1-hFc was diluted to 1 μg/mL with CBS solution, coated on a 96-well ELISA plate (purchased from Guangzhou Jiete Bio) at 4° C. overnight. After washing, 100 μL of phosphate buffer (PBS) containing 2% BSA was used for blocking at 37° C. for 1 hour. […] After washing, a goat anti-mouse secondary antibody labeled with HRP diluted in phosphate buffer (PBS) containing 2% BSA in a ratio of 1:15000 was added, followed by incubating at room temperature for 1 hour. After washing, the TMB chromogen solution was used for developing, and the absorbance value was read using a microplate reader at 450 nm, and the data were imported into Graphprism to calculate ICs values.

[3] = target: T3, human PD-1-ECD-mFc (human; mouse, UniProt Q15116 25-170); assay: ELISA, coated antigen (column head: Human PD-1-mFc; text of Example 4.2: human PD-1-hFc)
T3 construct: extracellular domain; Made in HEK293F cells; also called human PD-1-mFc; PD-1-mFc; not shown: mouse Fc (mFc) amino acids, AB097847.1
Description: as §1, with “The” for “To verify the affinity of the humanized PD-1 antibody to PD-1-His antigen, ELISA was employed. The”, “PD-1-hFc and monkey PD-1-hFc antigens were” for “PD-1-his was”, “anti-human” for “anti-mouse”, “nm, and the” for “nm. The”

[4] = target: T1, human PD-1-His; assay: BLI (Octet ForteBio), antibody on ProA biosensor, human PD-1-His in solution
[5] = target: T2, human PD-1-hFc; assay: competitive ELISA, coated human PD-1-hFc, competitor hPD-L1-mFc
Description: as §2

[6] = target: T2, human PD-1-hFc; assay: competitive ELISA, coated PD-1-hFc, competitor PDL1-mFc
Description: as §2

[7] = target: T4, monkey PD-1-hFc (monkey); assay: ELISA, coated monkey PD-1-hFc
T4 construct: Extracellular domain of monkey PD-1 fused to an hFc tag, made in house; not shown: The hFc tag and any linker
T4 chain: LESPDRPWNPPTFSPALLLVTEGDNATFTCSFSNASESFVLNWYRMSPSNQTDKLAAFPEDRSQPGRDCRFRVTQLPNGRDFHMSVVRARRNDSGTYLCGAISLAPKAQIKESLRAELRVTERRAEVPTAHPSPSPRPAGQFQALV
Description: as §1, with “The” for “To verify the affinity of the humanized PD-1 antibody to PD-1-His antigen, ELISA was employed. The”, “PD-1-hFc and monkey PD-1-hFc antigens were” for “PD-1-his was”, “anti-human” for “anti-mouse”, “nm, and the” for “nm. The”

[8] = target: T2, human PD-1-hFc; assay: competitive ELISA, coated human PD-1-hFc, competitor hPD-L2-mFc
Description: as §2

[9] = target: T5, PD-1 on Jurkat-PD-1-NFAT cells (UniProt Q15116 25-288, limits assumed); assay: cell-based or functional assay
[10] = target: T6, full-length human PD-1 on CHO-hPD-1 cells (human, UniProt Q15116 25-288); assay: competitive FACS on CHO-hPD-1 cells, competitor PD-L1-mFc-Bio
T6 construct: whole, on cells; also called PD-1 on the cell membrane surface of CHO-hPD-1
Source text: The data were imported into Graphprism to calculate IC₅₀ values.

[11] = target: T1, human PD-1-His; assay: BLI (Octet ForteBio), human PD-1-His
[12] = target: T1, human PD-1-His; assay: BLI (Octet ForteBio), antibody on ProA biosensor, PD-1-His in solution
[13] = target: T5, PD-1 on Jurkat-PD-1-NFAT cells; assay: cell-based or functional assay; remark: listed apart in the source

B1: chimeric antibody 35E6-CH (antibody, human IgG4 S228P, kappa)
heavy: not shown
light: CIVLTQSPASLAVSLGQSVTISCRASESVEYYGTNLMQWYQQKPGQPPKLLIYFASNVASGVPARFSGSGSGTDFSLNIHPVEGDDIARYFCQQSKKVPSTFGGGTKLEIKRTVAAPSVFIFPPSDEQLKSGTASVVCLLNNFYPREAKVQWKVDNALQSGNSQESVTEQDSKDSTYSLSSTLTLSKADYEKHKVYACEVTHQGLSSPVTKSFNRGEC
notes: Murine 35E6 variable regions fused to the IgG4 (S228P) heavy chain constant region and the human kappa constant region
EC50 [1]: 0.2 nM
IC50 [2]: 1.11 nM
EC50 [3]: 0.103 nM
Kd [4]: 0.416 nM
koff [4]: 0.000123 s⁻¹
kon [4]: 296000 M⁻¹ s⁻¹
IC50 [5]: 1.6 nM
IC50 [6]: 0.88 nM
EC50 [7]: 0.198 nM
IC50 [8]: 1.78 nM
EC50 (nM), cell activity for blocking PD-1/PD-L1 binding, luciferase reporter gene assay [9]: 5.53 nM
IC50 [10]: 1.58 ng/mL
fold stronger affinity than the control antibody 1 [11]: 15.4 times

B2: humanized antibody 91D5-HZ1 (antibody, human IgG4 S228P, kappa, V domains shown)
VH: EVQLVQSGAEVKKPGASVKVSCKASGYTFTDYYMNWVREAPGQGLEWMGEINPKYGDTTYAQKLQGRVTLTVDKSTSTAYMELSSLRSDDTAVYYCAKGIRLFDSWGQGTLVTVSS
VL: DIQLTQSPSSLSASVGDRVTITCRPSGNVHNYFAWYQQKPGKSPKLLVYNAKTLAEGVPSRFSGSGSGTDYTLTISSLQPEDFATYYCHHYYTAPFTFGGGTKVEIKR
EC50 [1]: 0.39 nM
IC50 [2]: 1.25 nM
Kd [12]: 1.89 nM
koff [12]: 0.00053 s⁻¹
kon [12]: 281000 M⁻¹ s⁻¹
IC50 [6]: 1.19 nM

B3: humanized antibody 91D5-HZ2 (antibody, human IgG4 S228P, kappa)
heavy: not shown
light: DIQLTQSPSSLSASVGDRVTITCRPSGNVHNYFAWYQQKPGKSPKLLVYNAKTLAEGVPSRFSGSGSGTDYTLTISSLQPEDFATYYCHHYYTAPFTFGGGTKVEIKRTVAAPSVFIFPPSDEQLKSGTASVVCLLNNFYPREAKVQWKVDNALQSGNSQESVTEQDSKDSTYSLSSTLTLSKADYEKHKVYACEVTHQGLSSPVTKSFNRGEC
EC50 [1]: 0.42 nM
IC50 [2]: 1.22 nM
Kd [12]: 1.5 nM
koff [12]: 0.000472 s⁻¹
kon [12]: 315000 M⁻¹ s⁻¹
IC50 [6]: 1.13 nM
EC50 from the PD-1/PD-L1 luciferase reporter system [13]: 4.47 nM

B4: chimeric antibody 14A4-CH (antibody, human IgG4 S228P, kappa, V domains shown)
VH: EVQLVESGGGLVKPGGSLKLSCAASGFTFSSYGMSWGRQTPEKRLEWVATISGGGSDTYYPDSVKGRFTISRDNVKNNLYLQMSSLRSEDTALYYCARQYGITWFAYWGQGTLVTVSA
VL: not shown
notes: Murine 14A4 variable regions fused to the IgG4 (S228P) heavy chain constant region and the human kappa constant region
EC50 [3]: 0.082 nM
Kd [4]: 1.49 nM
koff [4]: 0.000206 s⁻¹
kon [4]: 138000 M⁻¹ s⁻¹
IC50 [5]: 1.12 nM
EC50 [7]: 0.171 nM
IC50 [8]: 1.17 nM
EC50 (nM), cell activity for blocking PD-1/PD-L1 binding, luciferase reporter gene assay [9]: 8.4 nM
IC50 [10]: 0.75 ng/mL
fold stronger affinity than the control antibody 1 [11]: 4.3 times

B8: humanized antibody 29C6-HZ1 (antibody, human IgG4 S228P, kappa, V domains shown)
VH: QVQLVQSGAEVKKPGASVKVSCKTSGYTFTEYTIYWVRQAPGQGLEWIGGINPKNGATLYNQKFQGRVTLTVDKSTSTAYMELRSLRSDDTAVYYCVRDYHGNSHDSMDYWGQGTLVTVSS
VL: EIVLTQSPATLSLSPGERATLSCSASSSVSYMHWFQQKPGQAPRLWIYYTSNLASGVPARFSGSGSGTDYTLTISSLEPEDFAVYYCQQRSDYPPTFGGGTKVEIKR
EC50 [1]: 0.42 nM
IC50 [2]: 3.63 nM
IC50 [6]: 3.11 nM

More lines, in order of falling EC50 [1], values ahead:

EC50 [1]: 0.3 nM
IC50 [2]: 1.15 nM
Kd [12]: 1.31 nM
koff [12]: 0.000517 s⁻¹
kon [12]: 395000 M⁻¹ s⁻¹
IC50 [6]: 0.94 nM
EC50 from the PD-1/PD-L1 luciferase reporter system [13]: 3.63 nM
B6: humanized antibody 35E6-HZ1 (antibody, human IgG4 S228P, kappa)
heavy: not shown
light: EIVLTQSPATLSLSPGERATLSCRASESVEYYGTNLMQWYQQKPGQPPRLLIYFASNVASGIPARFSGSGSGTDFTLTISSLEPEDFAVYFCQQSKKVPSTFGQGTKVEIKRTVAAPSVFIFPPSDEQLKSGTASVVCLLNNFYPREAKVQWKVDNALQSGNSQESVTEQDSKDSTYSLSSTLTLSKADYEKHKVYACEVTHQGLSSPVTKSFNRGEC

EC50 [1]: 0.29 nM
IC50 [2]: 1.08 nM
EC50 [3]: 0.09 nM
Kd [4]: 0.549 nM
koff [4]: 0.000143 s⁻¹
kon [4]: 261000 M⁻¹ s⁻¹
IC50 [5]: 1.23 nM
Kd [12]: 0.547 nM
koff [12]: 0.000177 s⁻¹
kon [12]: 324000 M⁻¹ s⁻¹
IC50 [6]: 0.96 nM
EC50 [7]: 0.235 nM
IC50 [8]: 1.39 nM
EC50 (nM), cell activity for blocking PD-1/PD-L1 binding, luciferase reporter gene assay [9]: 4.41 nM
IC50 [10]: 0.96 ng/mL
fold stronger affinity than the control antibody 1 [11]: 11.7 times
B7: chimeric antibody 91D5-CH (antibody, human IgG4 S228P, kappa, V domains shown)
VH: EVQLQQSGPELVKPGASVKISCRASGYTFTDYYMNWVKESHGKSLEWIGEINPKYGDTTYNQKFKDKATLTVDKSSSTASVELRSLTSEDSAVYYCAKGIRLFDSWGQGTTVTVSS
VL: DIQLTQSPASLSASVGETVTITCRPSGNVHNYFAWYQQKQGKSPQLLVYNAKTLAEGVPSRFSGSGSGTQYSLKINSLQPEDFGTYYCHHYYTAPFTFGSGTKLEIKR
notes: Murine 91D5 variable regions fused to the IgG4 (S228P) heavy chain constant region and the human kappa constant region

EC50 [1]: 0.17 nM
IC50 [2]: 1.31 nM
EC50 [3]: 0.115 nM
Kd [4]: 0.88 nM
koff [4]: 0.000198 s⁻¹
kon [4]: 226000 M⁻¹ s⁻¹
IC50 [5]: 1.73 nM
Kd [12]: 0.516 nM
koff [12]: 0.000166 s⁻¹
kon [12]: 322000 M⁻¹ s⁻¹
IC50 [6]: 1.15 nM
EC50 [7]: 0.171 nM
IC50 [8]: 1.97 nM
EC50 (nM), cell activity for blocking PD-1/PD-L1 binding, luciferase reporter gene assay [9]: 10.7 nM
IC50 [10]: 1.7 ng/mL
fold stronger affinity than the control antibody 1 [11]: 7.3 times
B5: chimeric antibody 29C6-CH (antibody, human IgG4 S228P, kappa, V domains shown)
VH: QVQLEESGPELVKPGASVKISCKTSGYTFTEYTIYWVKQSHGKSLEWIGGINPKNGATLYNQKFKVKATLTVDKSSSTAYMELRSLTSEDSAVYYCVRDYHGNSHDSMDYWGQGTSVTVSS
VL: QIVLTQSPAIMSASPGEKVTITCSASSSVSYMHWFRQKPGTSPKLWIYYTSNLASGVPAHFSGSGSGTSYSLTISRMEAEDAATYYCQQRSDYPPTFGGGTKLEIKR
notes: Murine 29C6 variable regions fused to the IgG4 (S228P) heavy chain constant region and the human kappa constant region

EC50 [1]: 0.16 nM
IC50 [2]: 0.95 nM
Kd [12]: 1.65 nM
koff [12]: 0.000454 s⁻¹
kon [12]: 275000 M⁻¹ s⁻¹
IC50 [6]: 0.88 nM
EC50 from the PD-1/PD-L1 luciferase reporter system [13]: 5.74 nM
B9: humanized antibody 29C6-HZ2 (antibody, human IgG4 S228P, kappa, V domains shown)
VH: B8 VH with A9V, Q65K, G66V, V68A, S77T, R84K, R87Q, S88F, L116T
VL: B8 VL with W46L
